B1: P4381: promoter polynucleotide comprising SEQ ID NO: 1 isolated from Gene_4381 of Pseudomonas saitens KCTC 13107BP (nucleic acid)
DNA: TAGACCTGACTGCAGAGCGAATTCGGGCCTGATTCAGGGCAAAAATGGCCAGAAACCATTTTTCGCGTAAAAAATATTCATTCGCGAGTGCTTTTTTTCCAAGCCCGTTTAACCCTCAAGCCCCGGAAACCGGGGCTTCGAGCATTTCAGGCAGCAGACCGAAGCTAACATCGCAGCAAACTGTGGTTCAGGGGGGTTCCAAAGCGCACATTTCGACTATGATAGCTCGGTGTGCCCAGTTGGCCTGAGCAGCACAGTACTACTGAAAATATAAGTTTCTTGGAGATACACC
modifications: Synthetic Pseudomonas saitens KCTC 13107BP

Legend:
Assay type in all cases: cell-based, Pseudomonas saitens KCTC 13107BP
Ptac-cm^R SF1 strain = test: MIC test of chloramphenicol on recombinant SF1 strain (Ptac promoter); conditions: Pseudomonas, 48 h, read-out: MIC of Chloramphenicol
Procedure: (§1) A pB-P4381 vector comprising cm^R gene (cat) downstream of the promoter of highly expressed gene Gene_4381, which was selected based on RNA-seq data, was constructed as described in (2). This vector was then introduced into SF1 strain by electroporation. As control groups, a pSF-EX1 vector and a pBBR-122 vector were introduced into separate SF1 strains in the same manner as described above.
(§2) Each of the recombinant SF1 strains was cultured in separate wells of a microplate containing LB medium containing predetermined chloramphenicol, and growth thereof was examined to confirm minimal inhibitory concentrations (MICs). Culturing was performed at 30° C. for 2 days in an LB medium supplemented with 400 μg/ml of chloramphenicol by ½ dilution at each concentration.

Pcat-cm^R SF1 strain = test: MIC test of chloramphenicol on recombinant SF1 strain (Pcat promoter); conditions: Pseudomonas, 48 h, LB medium, 30° C., 2 days
Procedure: as §1, §2

P4381-cm^R SF1 strain = test: MIC test of chloramphenicol on recombinant SF1 strain (P4381 promoter)
Procedure: as §1, §2

cat gene = test: cat mRNA level by RT-PCR; conditions: SF1 strain
Text: Pcat-cm^R, Ptac-cm^R, and P4381-cm^R cells cultured in (3.1) were lysed to obtain cell lysates, which were then centrifuged to obtain supernatants, respectively. Each supernatant was subjected to RT-PCR using a set of primers of SEQ ID NOS: 13 and 14.
In FIG. 4, the vertical axis represents a ratio when a cycle threshold (CT) value of Pcat promoter is regarded as 1, and Pcat, Ptac, and P4381 on the horizontal axis represent SF1 strains introduced with […], respectively.

cat protein = test: SDS-PAGE analysis of cat protein expression in cell lysates; conditions: SDS-PAGE of soluble proteins, SF1 strain
Text: Pcat-cm^R, Ptac-cm^R, and P4381-cm^R cells cultured in (3.1) were lysed to obtain cell lysates, from which soluble proteins were isolated using a BuGBusTER® Protein Extraction Reagent, respectively. The isolated proteins were subjected to SDS-PAGE to examine cat expression.
In FIG. 5, the arrow indicates the position of cat protein.

| Molecule | MIC (Ptac-cm^R SF1 strain) | MIC (Pcat-cm^R SF1 strain) | MIC (P4381-cm^R SF1 strain; Pseudomonas, 48 h, strain P4381-cm^R, LB medium, 30° C., 2 days) | cat mRNA level relative to Pcat (cat gene; compared with Pcat promoter) | cat mRNA level relative to Ptac (cat gene; compared with Ptac promoter) | cat protein expression level compared with Pcat and Ptac (cat protein) | MIC relative to that of existing Pcat and Ptac (P4381-cm^R SF1 strain; chloramphenicol MIC, SF1 strain) |
| --- | --- | --- | --- | --- | --- | --- | --- |
| O=C(N[C@H](CO)[C@H](O)c1ccc([N+](=O)[O-])cc1)C(Cl)Cl [Chloramphenicol, chloramphenicol] | > 100 µg/mL | > 100 µg/mL | > 200 µg/mL | – | – | – | – |
| B1 | – | – | – | 158 times | 32 times | significantly higher | twice or higher |

From US20200024598A1, “ISOLATED POLY[…] REGION, HOST CELL COMPRISING THE SAME, AND METHOD OF […] GENE IN THE HOST CELL” (priority 2018, published 2020)
